Target: IL-4R (interleukin-4 receptor) (UniProt P24394)
Experiment: cell-based or functional assay

- attenuation of IL-4R activity against the control constructs (STAT6-luciferase): > 10%
B1: anti-IL-4R:anti-CD63 conjugate (streptavidin-conjugated anti-IL-4R antibody combined 1:1 with biotinylated anti-CD63 antibody MEM-259) (protein, part only; not given: anti-CD63 antibody and constant regions, part only)
VH: EVQLVESGGGVVQPGRSLRLSCVASGFTFSDYGMHWVRQAPGKGLEWVAVIWYDGSIKYFRDSVKGRFTISRDNSKNTLYLQMNSLRVEDTAHYYCAKESSSWYFYHGLDVWGQGTMVTVSS
VL: EIVMTQSPLSLPVSPGEPASISCRSNQSLLHSNGNNYLAWYLQKPGQSPHLLIYLGSNRASGVPDRFSGSGSGTDFTLKISRVEAGDVGTYFCMQSLQAPPFTFGPGTKVEIKR
modifications: antibody conjugated to streptavidin (site not stated)

— patent publication US20190000984A1
